{"source": "patent US9791436", "binders": {"B1": {"name": "SH3-H6-68-AP (protein)", "chain": "SGGSGAEYVRALFDFNGNDEEDLPFKKGDILRIRDKPEEQWWNAEDSEGKRGMIPVPYVEKYRPASASVSALIGGRGGSGGSGGSGGSGGSGGSSKALLKGVRDFNPISACVCLLENSSDGHSERLFGIGFGPYIIANQHLFRRNNGELTIKTMHGEFKVKNSTQLQMKPVEGRDIIVIKMAKDFPPFPQKLKFRQPTIKDRVCMVSTNFQQKSVSSLVSESSHIVHKEDTSFWQHWITTKDGQCGSPLVSIIDGNILGIHSLTHTTNGSNYFVEFPEKFVATYLDAADGWCKNWKFNADKISWGSFILWEDAPEDFMSGLVPRGVGREYVRFAPGSTHHHHHH"}}, "molecular_target": "SH3-peptide-tagged TVMV-inducible HCV-based signal transducers", "test": "cell-based or functional assay", "data": [{"binder": "B1", "values": [{"measurement": "induction ratio", "result": 20, "unit": "fold"}]}]}
